The numbers were not newly measured in publication PMC9570074, which cites them from elsewhere.

Data set [1] concerns the target CD30L (Homo sapiens) (UniProt P32971). Put plainly: SPR.
For data set [2], the target named is TRAIL (Homo sapiens) (UniProt P50591).
Data set [3] has the same target. This is another data set of the same source.

pKd: −log10 of the molar value. Like-named read-outs stand apart in the source and are kept apart here.

Sequence of UniProt P50591 (P50591 whole entry): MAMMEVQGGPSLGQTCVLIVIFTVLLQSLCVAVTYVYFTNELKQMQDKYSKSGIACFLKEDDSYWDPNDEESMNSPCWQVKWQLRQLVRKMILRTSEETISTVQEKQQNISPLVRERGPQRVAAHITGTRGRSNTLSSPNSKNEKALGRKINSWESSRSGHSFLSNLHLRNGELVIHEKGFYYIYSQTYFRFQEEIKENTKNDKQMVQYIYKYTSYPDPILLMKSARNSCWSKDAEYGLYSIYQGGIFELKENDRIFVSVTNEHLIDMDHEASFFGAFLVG
Sequence of UniProt P32971 (P32971 whole entry): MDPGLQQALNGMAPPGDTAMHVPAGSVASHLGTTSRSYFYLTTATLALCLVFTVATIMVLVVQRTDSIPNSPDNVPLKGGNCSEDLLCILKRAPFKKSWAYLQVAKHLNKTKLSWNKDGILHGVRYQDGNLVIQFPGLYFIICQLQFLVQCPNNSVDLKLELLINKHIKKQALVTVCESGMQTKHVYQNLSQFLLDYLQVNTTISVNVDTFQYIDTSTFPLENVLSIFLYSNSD

As to CD30 (from UniProt P28908), the pKd in data set [1] was 8.30. As for DcR1 (from UniProt O14798), the pKd in data set [2] is 9.00. With DcR2 (from UniProt Q9UBN6), in data set [3], the pKd was 9.00.
